Assay results taken from US20030036092A1.

Biological target: fluorogenic OmpT peptide substrate (BODIPY / trimethylrhodamine)
Assay: cell-based or functional assay

OmpT protease, wild type, expressed from multicopy plasmid pML19 in E. coli UT5600 (from UniProt P09169 21-317) (enzyme)
mean fluorescence intensity of cells by FACS after exposure to the fluorogenic substrate: 30 times
